These results are taken from paper PMC12410373, “Sad from Proteobacteria is a Structurally Distinct ALDH3 Enzyme Specialized for the Oxidation of Steroidal Aldehydes” (Biochemistry, 2025).

Series [1] has as its system O=Cc1ccccc1. The series can be described thus: purified protein. Conditions: 1 mM NAD+, 100 mM HEPES pH 7.5, 25 °C.
The subject of series [2] is C[C@H](C=O)[C@H]1CC[C@H]2[C@@H]3CCC4=CC(=O)CC[C@]4(C)[C@H]3CC[C@]12C. As to the kind of experiment: purified protein. Conditions: 1 mM NAD+, 100 mM HEPES pH 7.5, 25 °C.
For series [3], the system named is T1, C[C@H](C=O)[C@H]1CC[C@H]2[C@@H]3CCC4=CC(=O)CC[C@]4(C)[C@H]3CC[C@]12C.
T1 construct: full-length, His tag (pET28a, NdeI/HindIII), E. coli BL21 LOBSTR
As to the kind of experiment: purified protein. Format: biochemical, Pseudomonas putida. The settings on record: 1 mM NAD+, 100 mM HEPES pH 7.5, 25 °C.

Series [4] concerns T2, O=Cc1ccccc1.
T2 construct: full-length, His tag (pET28a, NdeI/HindIII), E. coli BL21 LOBSTR
The series can be described thus: purified protein. The format is biochemical, Pseudomonas putida. Conditions: 1 mM NAD+, 100 mM HEPES pH 7.5, 25 °C.

Series [5] deals with steroid aldehyde dehydrogenase (Sad) from Caldimonas tepidiphilia (Caldimonas tepidiphilia). As to the kind of experiment: crystal structure; X-ray, 1.8 Å; sitting-drop vapor diffusion at 4 °C, 20 mg/mL Sad_(Ctepid), 40% MPD, 3% PEG 8000, 0.1 M sodium cacodylate pH 6.5, 10% glycerol; interface analysed with PISA.

On to PpBADH (Pseudomonas putida; F400A), for which the Km (commonly the concentration of substrate that gives half-maximal velocity) in the series with O=Cc1ccccc1 [1] amounted to 59.5 ± 2.59 µM. Further, in series [2], the Km turned out to be 4.35 ± 0.167 µM; the kcat (in general, the number of substrate molecules converted per active site and unit of time at saturation) amounted to 0.00284 ± 3.34e-05 s⁻¹; the kcat/Km (usually the second-order rate constant that governs catalysis at low substrate concentration) was determined as 653 ± 75.1 M⁻¹ s⁻¹.
Consider “PpBADH (Pseudomonas putida; F400A/L125T)”, for which, in series [3], the Km was determined as 1.73 ± 0.0801 µM, the kcat was found to be 0.0431 ± 0.000719 s⁻¹ and the kcat/Km is 24900 ± 1230 M⁻¹ s⁻¹. For the same substance, in the series on O=Cc1ccccc1 [4], the Km worked out at 40.97 ± 2.58 µM, the kcat is 0.037 ± 0.000756 s⁻¹ and the kcat/Km amounted to 903 ± 59.8 M⁻¹ s⁻¹.
Turning to PpBADH (Pseudomonas putida; L125T), the Km in the series on O=Cc1ccccc1 [1] was found to be 3.18 ± 0.216 µM. In addition, in series [2], the Km is 18.94 ± 1.07 µM, the kcat stood at 0.0291 ± 0.000667 s⁻¹ and the catalytic efficiency (kcat/Km) came to 1540 ± 36.8 M⁻¹ s⁻¹.
As to PpBADH (Pseudomonas putida; Y121A), the Km in the series on O=Cc1ccccc1 [1] amounted to 700.4 ± 31.9 µM.
Consider SadCtest (Comamonas testosteroni), for which, in series [2], the Km is 1.93 ± 0.118 µM and the kcat came out at 3.57 ± 0.0818 s⁻¹.
On to “steroid aldehyde dehydrogenase (Sad) from Caldimonas tepidiphilia (enzyme)”, for which the stoichiometry N – broadly, a count of units in the complex or per binding partner – in series [5] was determined as 2.
